Source: patent US7566447B2, “Biocides” (Iogenetics, LLC, priority 2003, dated 2009)

How the values were obtained:
Caco-2 Host Cells = assay: Host cell toxicity assay by LDH release (CYTOTOX 96); format: cell-based, human; conditions: control medium alone for 2 h, 0-5% non toxic, 5-10% mild toxicity
Procedure: Host cell toxicity assay was performed by measuring the release of lactate dehydrogenase (LDH) in the medium using a CYTOTOX 96 Non-Radioactive Cytotoxicity Assay kit (Promega, Madison, Wis.). Toxicity was therefore classified as non toxic 0-5% LDH release and mild toxicity 5-10% LDH release (ref).

C. parvum sporozoites = assay: Effect of PLA2 on sporozoite infectivity for Caco-2 monolayers (immunofluorescence assay); format: cell-based, Cryptosporidium parvum
Procedure: (§1) This experiment describes the effects of PLA2 on sporozoite infectivity. Briefly, sporozoites were incubated in an isotonic saline solution (37° C., 30 min) with a range of concentrations of PLA2 isolated from honey bee venom (Sigma-Aldrich Corp., St. Louis, Mo., 1.5 U/μg protein). Control sporozoites were identically incubated in buffer containing concentration-matched BSA but no PLA2. Sporozoites were then washed in medium and inoculated onto replicate Caco-2 human intestinal epithelial cell monolayers. 24 h later, infection was quantified in test and control monolayers by immunofluorescence assay as described herein and the mean percent reduction of infection calculated. […] Percent viability of Caco-2 cells following exposure to PLA2-treated sporozoites (86%) was similar to that of uninoculated control cells (91 %) at 24 hrs, as determined by trypan blue dye exclusion. […] Through fusion of PLA2 to a monoclonal antibody with a high affinity for sporozoites, such as 1E10 or 4H9, lethal concentrations of biocide are deliverable to the sporozoite surface with relatively low amounts of biocide being used.

Caco-2 cells = assay: Caco-2 cell viability by trypan blue dye exclusion; format: cell-based, human; conditions: 24 hrs, uninoculated control cells 91 %
Procedure: as §1

Substance	% LDH release (Caco-2 Host Cells; 10 μg/ml) [%]	PLA2 concentration effective in neutralization (C. parvum sporozoites; preliminary data) [units/ml]	PLA2 concentration achieving highly significant reduction of sporozoite infectivity (C. parvum sporozoites; sporozoites incubated 37° C., 30 min, Caco-2 monolayers, 24 h, P<0.0005) [U/ml]	Percent viability of Caco-2 cells following exposure to PLA2-treated sporozoites (Caco-2 cells) [%]	% LDH release (Caco-2 Host Cells; 100 μg/ml) [%]
b-defensin 1 [βD1]	0.8 ± 1.0				
bee-venom phospholipase A2 [PLA2]		< 0.02	0.014	86	
cathelicidin	1.6 ± 0.3				5.6 ± 0.9
